{"source": "paper PMC4476040", "target": "N-HGbRL, the N-terminal globin domain of HGbRL from Methylacidiphilum infernorum (Methylacidiphilum infernorum)", "test": "crystal structure; open, imidazole-bound form; space group C2, two subunits in the asymmetric unit; crystals at 20 °C in 3.5 M 1,6-hexanediol, 0.1 M sodium citrate pH 5.6; 1.94 Å", "data": [{"substance": "N-HGbRL, the N-terminal globin domain of HGbRL from Methylacidiphilum infernorum (domain or fragment)", "values": [{"measurement": "stoichiometry N", "result": 2}]}]}
